The IC50 is the midpoint of a concentration-inhibition curve.

Test [1] addresses T1, recombinant hIL-10Ra (hIL-10Ra): FLAG-tagged protein (human, UniProt Q13651 22-235).
T1 construct: The order of the receptor part and the FLAG tag is unknown; also called huIL-10Ra; not shown: FLAG tag
T1 sequence (looked up): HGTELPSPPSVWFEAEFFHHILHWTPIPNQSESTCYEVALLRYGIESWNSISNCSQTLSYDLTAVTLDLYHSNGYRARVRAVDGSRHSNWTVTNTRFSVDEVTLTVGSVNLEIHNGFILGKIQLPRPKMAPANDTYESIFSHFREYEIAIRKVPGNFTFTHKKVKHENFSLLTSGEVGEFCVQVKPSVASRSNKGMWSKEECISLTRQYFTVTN
Briefly: competitive ECLA (IGEN): unlabeled IL-10 against hIL-10-biotin for FLAG-tagged hIL-10Ra. An excerpt:
Materials used. 96 well Polypropylene plates (Costar, Cat. No. 3365, Fisher Sci. Cat. No. 07200697); assay buffer of 0.1% BSA, 0.05% tween 20, PBS pH 7.5; paramagnetic beads (Streptavidin-Dynabeads, Igen, Inc., Cat. No. 110029); recombinant human IL-10 dimer (hIL-10-dimer); recombinant human IL-10-monomer (hlL-10-mono); recombinant mouse IL-10 (mIL-10); recombinant cyno IL-10 (cyno IL-10); and recombinant hIL-10Ra (hL-10Ra): FLAG-tagged protein. Ori-Tag labeled anti-FLAG M2 monoclonal antibodies were prepared using Ori-Tag-NHS ester (Igen, Inc. Cat. No. 110034) according to manufacturer's protocol (OriTag label: IgG challenge ratio 8:1). Anti-Flag M2 monoclonal antibodies were purchased from Sigma (Cat. No. F3165). Ori-Tag labeled anti hIgG 1A2 monoclonal antibodies were prepared as above using rat anti hIgG monoclonal antibodies. Ori-Tag labeled anti rat IgG antibodies were prepared as above from polyclonal Goat anti rat IgG (H+L) antibodies (Jackson Immunoresearch Laboratories, Inc. PA, Cat. No. 112-005-143). […]
Protocol. ⅓ serial dilutions in 50 microliters of the assay buffer were made in 96-well microtiter plate for all unlabeled IL-10 preparations (mIL-10, cyno IL-10, hIL-10 dimer, hIL-10 mono) starting with 3 μg/ml in the first well. […] Percent inhibition of the signal by unlabeled IL-10 preparations was calculated relative to the control samples. […]

In test [2] the target is T2, rat anti hIL-10 mAb 12G8 (r12G8): JES3.12G8.
T2 construct: Rat monoclonal antibody; also called Rat 12G8; JES.12G8
Briefly: IGEN competitive ECLA, mean ± S.D. (n); summary of Table 15. An excerpt:
(§1) Materials used. 96 well Polypropylene plates (Costar, Cat. No. 3365, Fisher Sci. Cat. No. 07200697); assay buffer of 0.1% BSA, 0.05% tween 20, PBS pH 7.5; paramagnetic beads (Streptavidin-Dynabeads, Igen, Inc., Cat. No. 110029); recombinant human IL-10 dimer (hIL-10-dimer); recombinant human IL-10-monomer (hlL-10-mono); recombinant mouse IL-10 (mIL-10); recombinant cyno IL-10 (cyno IL-10); and recombinant hIL-10Ra (hL-10Ra): FLAG-tagged protein. Ori-Tag labeled anti-FLAG M2 monoclonal antibodies were prepared using Ori-Tag-NHS ester (Igen, Inc. Cat. No. 110034) according to manufacturer's protocol (OriTag label: IgG challenge ratio 8:1). Anti-Flag M2 monoclonal antibodies were purchased from Sigma (Cat. No. F3165). Ori-Tag labeled anti hIgG 1A2 monoclonal antibodies were prepared as above using rat anti hIgG monoclonal antibodies. Ori-Tag labeled anti rat IgG antibodies were prepared as above from polyclonal Goat anti rat IgG (H+L) antibodies (Jackson Immunoresearch Laboratories, Inc. PA, Cat. No. 112-005-143). Biotinylated recombinant human IL-10 (hIL-10-biotin) was prepared using TFP-PEO-biotin (Pierce, Cat. No. 21219) according to manufacturer's recommendations (Pierce bulletin 0874). The rat anti hIL-10 mAb 12G8 (r12G8): JES3.12G8 and humanized anti hIL-10 mAb 12G8 (hl2G8-1) were prepared as described herein.
(§2) Protocol. ⅓ serial dilutions in 50 microliters of the assay buffer were made in 96-well microtiter plate for all unlabeled IL-10 preparations (mIL-10, cyno IL-10, hIL-10 dimer, hIL-10 mono) starting with 3 μg/ml in the first well. All samples were run in duplicates. 50 μl of hIL-10-biotin at 25 ng/ml was added to each well, followed by the addition of either hIL-10Ra (50 μl at 100 ng/ml) or […] (50 μl at 10 ng/ml). 50 microliters of Ori-Tag conjugated secondary antibodies was added to each well at 500 ng/ml conc. For hIL-10Ra, r12G8 and h12G8 the following Ori-Tag conjugated were used accordingly: anti-FLAG M2-OriTag, anti-rat IgG-OriTag and anti hIgG 1A2-OriTag. Finally to each well 50 μl of Streptavidin-Dynabeads at 0.1 mg/ml was added. After a one hour incubation at room temperature the plate was processed by the M-series M8/384 analyzer. Percent inhibition of the signal by unlabeled IL-10 preparations was calculated relative to the control samples. To plot the data and calculate IC₅₀ the GraphPad Prism Software was used.

Test [3] concerns the target T3, Monoclonal humanized antibody SCH 708980 to recombinant human IL-10 (humanized 12G8).
T3 construct: also called h12G8; hu12G8
The test is described as above.
Excerpt: as §1, §2

Test [4] has as its target T2, rat anti hIL-10 mAb 12G8 (r12G8): …. Briefly: competitive ECLA (IGEN): unlabeled IL-10 varied, competitor hIL-10-biotin.
Excerpt: as §1, §2

For test [5], the target named is T3, Monoclonal humanized antibody SCH …. The test is described as above.
Excerpt: as §1, §2

B1: recombinant mouse IL-10 (mIL-10) (ligand, UniProt P18893 19-178, looked up)
chain: SRGQYSREDNNCTHFPVGQSHMLLELRTAFSQVKTFFQTKDQLDNILLTDSLMQDFKGYLGCQALSEMIQFYLVEVMPQAEKHGPEIKEHLNSLGEKLKTLRMRLRRCHRFLPCENKSKAVEQVKSDFNKLQDQGVYKAMNEFDIFINCIEAYMMIKMKS
As for B1, the binding result in test [1] was “no binding (tested: unlabeled IL-10 titrated from 3 µg/ml)”. The IC50 was 38 nM in test [2], 53 nM in test [3], 37.9 nM in test [4] and 53 nM in test [5].

The values are drawn from patent US20050101770A1 (SCHERING, published 2005).
